The values below come from paper PMC5809688 (Molecular and Cellular Biology, 2017).

The target of one assay is T1, p38α(T185G) (UniProt P47811 1-360, T185G).
T1 construct: PCR product described as a full-length p38α harboring the desired mutation; His6 tag followed by a TEV cleavage site at the N-terminal end; also called T185G mutant; p38α(T185G) mutant kinase
As to the kind of experiment: ITC; ITC200 microcalorimeter (Microcal); T = 298 K; heats corrected for dilution; which partner was titrated is not stated. As to conditions: both partners purified.

Assay [1] has as its target T2, wild-type p38α mitogen-activated protein kinase (UniProt P47811 1-360).
T2 construct: His6 tag followed by a TEV cleavage site at the N-terminal end; also called wtp38α
The description is as above. The settings on record: both partners purified.

T2 sequence (P47811 whole entry): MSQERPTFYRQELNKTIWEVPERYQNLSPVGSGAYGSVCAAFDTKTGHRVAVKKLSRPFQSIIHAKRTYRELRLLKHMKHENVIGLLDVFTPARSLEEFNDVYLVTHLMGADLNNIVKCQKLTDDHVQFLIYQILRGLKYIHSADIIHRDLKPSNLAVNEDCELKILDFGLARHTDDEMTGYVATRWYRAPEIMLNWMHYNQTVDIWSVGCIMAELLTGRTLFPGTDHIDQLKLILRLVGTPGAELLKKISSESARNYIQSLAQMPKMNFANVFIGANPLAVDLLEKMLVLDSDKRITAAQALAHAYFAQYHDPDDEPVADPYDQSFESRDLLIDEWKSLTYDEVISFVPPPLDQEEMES
T1 sequence (P47811 whole entry T185G): as the sequence (P47811 whole entry) above, with T185G counted along it

GGRVYPVSVPYSSAQSTSKTSVTLSLVMP (peptide, UniProt Q15750 384-412, looked up): in the assay with p38α(T185G), the affinity, expressed as Kd, was 1100 nM; the dH is -9.6 kcal/mol; the stoichiometry N (commonly a count of units in the complex or per binding partner) was 0.7. Also, in assay [1], the Kd (commonly a measure of binding affinity in units of concentration) was determined as 2900 nM, the dH was -13.6 kcal/mol and the “stoichiometry N” value stood at 0.8.
